# From paper PMC4740876
# Tests used:
# [1] = biological target: mononucleosome containing H2B-Ub (ubiquitin on Lys120 of H2B by a stable isopeptide linkage) (UniProt P62807); assay: SEC-MALS; mononucleosomes (300 pmol) with the catalytic domain of hDot1L (8.5 nmol) in 25 mM Tris-HCl, 150 mM NaCl, pH 7.8, 4 °C 30 min; Superdex 200 10/300
# [2] = biological target: unmodified mononucleosome; assay: as above
substance,measurement,setting,value
"cysteine-less catalytic domain of hDot1L, hDot1L(1–416)C44S/C74S/C178S (from UniProt Q8TEK3 2-417) (enzyme)",stoichiometry N (hDot1L per mononucleosome),[1],2
same,stoichiometry N (hDot1L per mononucleosome),[2],1
